{
  "source": "patent US20050064507",
  "proteins": {"B1": {"name": "PKC-zeta (protein)", "chain": "MPSRTGPKMEGSGGRVRLKAHYGGDIFITSVDAATTFEELCEEVRDMCRLHQQHPLTLKWVDSEGDPCTVSSQMELEEAFRLARQCRDEGLIIHVFPSTPEQPGLPCPGEDKSIYRRGARRWRKLYRANGHLFQAKRFNRRAYCGQCSERIWGLARQGYRCINCKLLVHKRCHGLVPLTCRKHMDSVMPSQEPPVDDKNEDADLPSEETDGIAYISSSRKHDSIKDDSEDLKPVIDGMDGIKISQGLGLQDFDLIRVIGRGSYAKVLLVRLKKNDQIYAMKVVKKELVHDDEDIDWVQTEKHVFEQASSNPFLVGLHSCFQTTSRLFLVIEYVNGGDLMFHMQRQRKLPEEHARFYAAEICIALNFLHERGIIYRDLKLDNVLLDADGHIKLTDYGMCKEGLGPGDTTSTFCGTPNYIAPEILRGEEYGFSVDWWALGVLMFEMMAGRSPFDIITDNPDMNTEDYLFQVILEKPIRIPRFLSVKASHVLKGFLNKDPKERLGCRPQTGFSDIKSHAFFRSIDWDLLEKKQALPPFQPQITDDYGLDNFDTQFTSEPVQLTPDDEDAIKRIDQSEFEGFEYINPLLLSTEESV"}},
  "key": {"[1]": {"target": "T1, SDPR peptide EKIKRSSLKKVDSLKK (SEQ ID NO:104) (not fully specified)", "T1 chain": "EKIKRSSLKKVDSLKK"}, "[2]": {"target": "T2, ubiquitin specific protease 8 peptide RARRDSLKKIEIW (SEQ ID NO:136) (not fully specified)", "T2 chain": "RARRDSLKKIEIW"}, "[3]": {"target": "T3, AKAP12 peptide AGWRKKTSFRKPKED (SEQ ID NO:99) (not fully specified)", "T3 chain": "AGWRKKTSFRKPKED"}, "[4]": {"target": "T4, MGC2941 peptide RPTPGDGEKRSRIKKSKKRK (SEQ ID NO:139) (not fully specified)", "T4 chain": "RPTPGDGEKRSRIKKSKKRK"}, "[5]": {"target": "T5, HERG peptide TELEGGFSRQRKRKLSFRRR (SEQ ID NO:140) (not fully specified)", "T5 chain": "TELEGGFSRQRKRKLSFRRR"}, "[6]": {"target": "T6, LIMK-2 peptide LRRRSLRRSNSISKSPGP (SEQ ID NO:121) (not fully specified)", "T6 chain": "LRRRSLRRSNSISKSPGP"}, "[7]": {"target": "T7, CREB1 peptide EILSRRPSYRKILND (SEQ ID NO:106) (not fully specified)", "T7 chain": "EILSRRPSYRKILND"}, "[8]": {"target": "T8, slp4 peptide TYLLPDKSRQGKRKTSIKRD (SEQ ID NO:153) (not fully specified)", "T8 chain": "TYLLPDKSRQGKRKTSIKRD"}, "[9]": {"target": "T9, MARCKS peptide PSPSNETPKKKKKRFSFKKS (SEQ ID NO:157) (not fully specified)", "T9 chain": "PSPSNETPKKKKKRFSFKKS"}, "[10]": {"target": "T10, PARIS1 peptide EYLERRASRRRAV (SEQ ID NO:89) (not fully specified)", "T10 chain": "EYLERRASRRRAV"}, "[11]": {"target": "T11, NCF1 peptide GAPPRRSSIRNAH (SEQ ID NO:101) (not fully specified)", "T11 chain": "GAPPRRSSIRNAH"}, "[12]": {"target": "T12, M1 muscarinic receptor peptide RWDKRRWRKIPKRPGSVHRT (SEQ ID NO:155) (not fully specified)", "T12 chain": "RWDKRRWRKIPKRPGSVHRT"}, "[13]": {"target": "T13, dag kinase iota peptide NRKKKRTSFKRKA (SEQ ID NO:115) (not fully specified)", "T13 chain": "NRKKKRTSFKRKA"}, "[14]": {"target": "T14, ERN1 peptide KLAVGRHSFSRRSGV (SEQ ID NO:94) (not fully specified)", "T14 chain": "KLAVGRHSFSRRSGV"}, "[15]": {"target": "T15, GABA A receptor beta 2 peptide ERHVAQKKSRLRRRASQLKI (SEQ ID NO:142) (not fully specified)", "T15 chain": "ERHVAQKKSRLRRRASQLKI"}, "[16]": {"target": "T16, DGKZ peptide KKKKRASFKRKSSKKG (SEQ ID NO:77) (not fully specified)", "T16 chain": "KKKKRASFKRKSSKKG"}, "[17]": {"target": "T17, dag kinase zeta peptide KKKKRASFKRKSSKKG (SEQ ID NO:114) (not fully specified)", "T17 chain": "KKKKRASFKRKSSKKG"}, "[18]": {"target": "T18, p164-RhoGEF peptide PRLIRRGSKKRPAR (SEQ ID NO:124) (not fully specified)", "T18 chain": "PRLIRRGSKKRPAR"}, "[19]": {"target": "T19, phospholemman peptide EEGTFRSSIRRLSTRRR (SEQ ID NO:116) (not fully specified)", "T19 chain": "EEGTFRSSIRRLSTRRR"}, "[20]": {"target": "T20, PARIS1 peptide EYLERRASRRRAV (SEQ ID NO:138) (not fully specified)", "T20 chain": "EYLERRASRRRAV"}, "[21]": {"target": "T21, DGKI peptide NRKKKRTSFKRKA (SEQ ID NO:79) (not fully specified)", "T21 chain": "NRKKKRTSFKRKA"}, "[22]": {"target": "T22, Urotensin-2 receptor peptide LYARLARAYRRSQRASFKRA (SEQ ID NO:159) (not fully specified)", "T22 chain": "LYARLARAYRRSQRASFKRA"}, "[23]": {"target": "T23, PARIS1 peptide RELEQLKAEYLERRASRRRA (SEQ ID NO:148) (not fully specified)", "T23 chain": "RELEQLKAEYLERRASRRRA"}, "[24]": {"target": "T24, … peptide KKPFKLSGLSFKRNRKE (SEQ ID NO:88) (not fully specified)", "T24 chain": "KKPFKLSGLSFKRNRKE"}, "[25]": {"target": "T25, Myt1 kinase peptide PPRTPGWHQLQPRRVSFRGE (SEQ ID NO:163) (not fully specified)", "T25 chain": "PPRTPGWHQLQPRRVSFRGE"}, "[26]": {"target": "T26, PKD1 peptide RVVQSVKHTKRKSSTVMK (SEQ ID NO:149) (not fully specified)", "T26 chain": "RVVQSVKHTKRKSSTVMK"}, "[27]": {"target": "T27, dag kinase iota peptide PQNSLKASNRKKKRTSFKRK (SEQ ID NO:151) (not fully specified)", "T27 chain": "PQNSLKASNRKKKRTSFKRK"}, "[28]": {"target": "T28, plectin peptide PLKEKKRERKTSSKSSVRKR (SEQ ID NO:125) (not fully specified)", "T28 chain": "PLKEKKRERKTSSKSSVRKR"}, "[29]": {"target": "T29, SMARCA5 peptide MAQIERGEARIQRRISIKKA (SEQ ID NO:166) (not fully specified)", "T29 chain": "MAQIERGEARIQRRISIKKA"}, "[30]": {"target": "T30, p164-RhoGEF peptide PRLIRRGSKKRPAR (SEQ ID NO:82) (not fully specified)", "T30 chain": "PRLIRRGSKKRPAR"}, "[31]": {"target": "T31, MARCKS peptide KKKKKRFSFKKSFKL (SEQ ID NO:80) (not fully specified)", "T31 chain": "KKKKKRFSFKKSFKL"}},
  "data": [
    {"protein": "B1", "values": [
      {"measurement": "in vitro phosphorylation (% of best substrate)", "setting": "[1]", "value": 3},
      {"measurement": "in vitro phosphorylation, 1 uM peptide (% of best substrate)", "setting": "[2]", "value": 6},
      {"measurement": "in vitro phosphorylation, 10 uM peptide (% of best substrate)", "setting": "[2]", "value": 9},
      {"measurement": "in vitro phosphorylation (% of best substrate)", "setting": "[3]", "value": 10},
      {"measurement": "in vitro phosphorylation, 1 uM peptide (% of best substrate)", "setting": "[4]", "value": 1},
      {"measurement": "in vitro phosphorylation, 10 uM peptide (% of best substrate)", "setting": "[4]", "value": 1},
      {"measurement": "in vitro phosphorylation, 1 uM peptide (% of best substrate)", "setting": "[5]", "value": 24},
      {"measurement": "in vitro phosphorylation, 10 uM peptide (% of best substrate)", "setting": "[5]", "value": 49},
      {"measurement": "in vitro phosphorylation, 1 uM peptide (% of best substrate)", "setting": "[6]", "value": 60},
      {"measurement": "in vitro phosphorylation, 10 uM peptide (% of best substrate)", "setting": "[6]", "value": 56},
      {"measurement": "in vitro phosphorylation (% of best substrate)", "setting": "[7]", "value": 15},
      {"measurement": "in vitro phosphorylation, 1 uM peptide (% of best substrate)", "setting": "[8]", "value": 6},
      {"measurement": "in vitro phosphorylation, 10 uM peptide (% of best substrate)", "setting": "[8]", "value": 13},
      {"measurement": "in vitro phosphorylation, 1 uM peptide (% of best substrate)", "setting": "[9]", "value": 3},
      {"measurement": "in vitro phosphorylation, 10 uM peptide (% of best substrate)", "setting": "[9]", "value": 6},
      {"measurement": "in vitro phosphorylation (% of best substrate)", "setting": "[10]", "value": 14},
      {"measurement": "in vitro phosphorylation (% of best substrate)", "setting": "[11]", "value": 3},
      {"measurement": "in vitro phosphorylation, 1 uM peptide (% of best substrate)", "setting": "[12]", "value": 19},
      {"measurement": "in vitro phosphorylation, 10 uM peptide (% of best substrate)", "setting": "[12]", "value": 6},
      {"measurement": "in vitro phosphorylation, 1 uM peptide (% of best substrate)", "setting": "[13]", "value": 11},
      {"measurement": "in vitro phosphorylation, 10 uM peptide (% of best substrate)", "setting": "[13]", "value": 10},
      {"measurement": "in vitro phosphorylation (% of best substrate)", "setting": "[14]", "value": 10},
      {"measurement": "in vitro phosphorylation, 1 uM peptide (% of best substrate)", "setting": "[15]", "value": 22},
      {"measurement": "in vitro phosphorylation, 10 uM peptide (% of best substrate)", "setting": "[15]", "value": 37},
      {"measurement": "in vitro phosphorylation (% of best substrate)", "setting": "[16]", "value": 60},
      {"measurement": "in vitro phosphorylation, 1 uM peptide (% of best substrate)", "setting": "[17]", "value": 45},
      {"measurement": "in vitro phosphorylation, 10 uM peptide (% of best substrate)", "setting": "[17]", "value": 51},
      {"measurement": "in vitro phosphorylation, 1 uM peptide (% of best substrate)", "setting": "[18]", "value": 45},
      {"measurement": "in vitro phosphorylation, 10 uM peptide (% of best substrate)", "setting": "[18]", "value": 32},
      {"measurement": "in vitro phosphorylation, 1 uM peptide (% of best substrate)", "setting": "[19]", "value": 100},
      {"measurement": "in vitro phosphorylation, 10 uM peptide (% of best substrate)", "setting": "[19]", "value": 100},
      {"measurement": "in vitro phosphorylation, 1 uM peptide (% of best substrate)", "setting": "[20]", "value": 31},
      {"measurement": "in vitro phosphorylation, 10 uM peptide (% of best substrate)", "setting": "[20]", "value": 61},
      {"measurement": "in vitro phosphorylation (% of best substrate)", "setting": "[21]", "value": 18},
      {"measurement": "in vitro phosphorylation, 1 uM peptide (% of best substrate)", "setting": "[22]", "value": 25},
      {"measurement": "in vitro phosphorylation, 10 uM peptide (% of best substrate)", "setting": "[22]", "value": 41},
      {"measurement": "in vitro phosphorylation, 1 uM peptide (% of best substrate)", "setting": "[23]", "value": 20},
      {"measurement": "in vitro phosphorylation, 10 uM peptide (% of best substrate)", "setting": "[23]", "value": 20},
      {"measurement": "in vitro phosphorylation (% of best substrate)", "setting": "[24]", "value": 4},
      {"measurement": "in vitro phosphorylation, 1 uM peptide (% of best substrate)", "setting": "[25]", "value": 7},
      {"measurement": "in vitro phosphorylation, 10 uM peptide (% of best substrate)", "setting": "[25]", "value": 26},
      {"measurement": "in vitro phosphorylation, 1 uM peptide (% of best substrate)", "setting": "[26]", "value": 3},
      {"measurement": "in vitro phosphorylation, 10 uM peptide (% of best substrate)", "setting": "[26]", "value": 5},
      {"measurement": "in vitro phosphorylation, 1 uM peptide (% of best substrate)", "setting": "[27]", "value": 15},
      {"measurement": "in vitro phosphorylation, 10 uM peptide (% of best substrate)", "setting": "[27]", "value": 28},
      {"measurement": "in vitro phosphorylation, 1 uM peptide (% of best substrate)", "setting": "[28]", "value": 13},
      {"measurement": "in vitro phosphorylation, 10 uM peptide (% of best substrate)", "setting": "[28]", "value": 12},
      {"measurement": "in vitro phosphorylation, 1 uM peptide (% of best substrate)", "setting": "[29]", "value": 2},
      {"measurement": "in vitro phosphorylation, 10 uM peptide (% of best substrate)", "setting": "[29]", "value": 9},
      {"measurement": "in vitro phosphorylation (% of best substrate)", "setting": "[30]", "value": 38},
      {"measurement": "in vitro phosphorylation (% of best substrate)", "setting": "[31]", "value": 16}
    ]}
  ]
}
